The numbers were not newly measured in PMC6389863, which cites them from elsewhere.

A value given as a limit tells only on which side of the number the result lay.

Some targets named below: Glu73 (UniProt position 120, GRTWREADINY); His72 (UniProt position 73, GINTAHKARQV); Asp102 (UniProt position 102, LTINNDITLLK); His18 (UniProt position 19, KCAQCHTVEKG); Lys39 (UniProt position 39, EFPGGKIEMGE); Asp76 (UniProt position 102, GSPGADRVVFN); Asp70 (UniProt position 70, KLFNQDVDAAV); Tyr149 (UniProt position 149, TPQSPYGKSKL); Cys87 (UniProt position 87, RLGRICLDVLK); His149 (UniProt position 177, ITFTNHVNAWK).

The target in series [1] is Cys25 (UniProt position 158, GSCGSCWAFSA).
Series [2] addresses Cys25 (UniProt position 157, GSCGSCWAFSA).
A further series concerns the target Asp26 (UniProt position 26, KLVVVDFSATW). Particulars: reduced (active-site dithiol) thioredoxin.

With “Barnase (not stated (inferred Bacillus amyloliquefaciens))”, the pKa (usually the pH at which an ionisable group is half protonated) with Glu73 was 2.1. On to “Bovine heart phosphotyrosyl phosphatase (low molecular weight PTP) (Bos taurus)”, for which, in the series with His72, the pKa is listed as 9.19.

For Calbindin D9k (bovine) (Bos taurus), the pKa with Lys55 is listed as 12.12.

As to “Chymotrypsinogen A (bovine) (Bos taurus)”, the pKa with Asp102 is on record as 1.36. Turning to Cytochrome c (horse) (Equus caballus), the pKa with His18 is listed as 2.5. On to “MutT enzyme (not stated (inferred Escherichia coli))”, for which the pKa with Lys39 was 8.4. “Ovomucoid third domain, silver pheasant (OMSVP3) (Lophura nycthemera (silver pheasant))”: the pKa in the series with Tyr31 is on record as 12.5.

With Papain (Carica papaya (inferred)), the pKa in the series with Cys25 [1] is given as 3.32.

Take “Papaya protease (PDB 1PPO; caricain / papaya protease omega) (Carica papaya (inferred))”: in the series with Cys25 [2], the pKa is 2.88. Turning to “Ribonuclease T1 (RNase T1) (not stated (inferred Aspergillus oryzae))”, in the series with Asp76, the pKa was 0.5.

For “T4 lysozyme (Enterobacteria phage T4 (inferred))”, the pKa with Asp70 is given as 0.5. As to “Thioredoxin (human, reduced) (Homo sapiens)”, in the series with Asp26, the pKa is listed as 9.9. Turning to “UDP-galactose 4-epimerase (Escherichia coli)”, the pKa with Tyr149 was 6.08.

Turning to “Ubiquitin-conjugating enzyme Ubc13 (not stated (PDB 1JBB is Saccharomyces cerevisiae Ubc13, inferred))”, the pKa in the series with Cys87 is 11.1. With “Xylanase (Bacillus circulans xylanase) (Bacillus circulans (from the title of ref 20))”, the pKa with His149 is reported as <2.3.
